The values below come from the supplement of paper PMC5998384.

Series [1] has as its system HeLa Kyoto. Briefly: solubility in G1/S (NP-40 vs SDS abundance) (log2 ratio); higher = more soluble. The conditions noted are these: cell cycle stage: G1/S.
Series [2] has as its system HeLa Kyoto. Briefly: melting temperature (median over replicates), in situ; higher = more thermally stable.
Series [3] relates to HeLa Kyoto. Nature of the series: solubility change mitosis vs G1/S (difference of NP-40 vs SDS log2 ratios) (log2 ratio difference); higher = more soluble in mitosis.
Series [4] concerns HeLa Kyoto. Briefly: thermal stability score vs G1/S (z-score of summed log2 fold changes over temperatures); higher = more thermally stable than in G1/S.
The mark [5] stands for this setting: cell cycle stage: early G1 (4.5 h after nocodazole release).
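Wherever melting temperature (median over replicates), in situ is given: HeLa Kyoto cells synchronized by double thymidine or nocodazole block, proteins quantified by TMT10plex mass spectrometry, three independent biological replicates.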
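Wherever solubility change mitosis vs G1/S (difference of NP-40 vs SDS log2 ratios) is given: synchronized HeLa Kyoto cells (double thymidine block for G1/S, nocodazole release for mitosis), protein amounts in NP-40 versus SDS lysates quantified by mass spectrometry, three biological replicates.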
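Wherever solubility in G1/S (NP-40 vs SDS abundance) is given: HeLa Kyoto cells arrested at G1/S by double thymidine block, proteins quantified by TMT10plex mass spectrometry in mild NP-40 versus SDS extracts, three biological replicates.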
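Wherever thermal stability score vs G1/S (z-score of summed log2 fold changes over temperatures) is given: synchronized HeLa Kyoto cells, proteins quantified by TMT10plex mass spectrometry, three biological replicates, mitosis taken 0.5 h after nocodazole release, G1/S directly after double thymidine block.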

As to “MDMKRRIHLELRNRTPAAVRELVLDNCKSNDGKIEGLTAEFVNLEFLSLINVGLISVSNLPKLPKLKKLELSENRIFGGLDMLAEKLPNLTHLNLSGNKLKDISTLEPLKKLECLKSLDLFNCEVTNLNDYRESVFKLLPQLTYLDGYDREDQEAPDSDAEVDGVDEEEEDEEGEDEEDEDDEDGEEEEFDEEDDEDEDVEGDEDDDEVSEEEEEFGLDEEDEDEDEDEEEEEGGKGEKRKRETDDEGEDD [ANP32B]”, the “solubility in G1/S (log2)” value in series [1] was -0.0836. Further, the melting temperature in series [2] (cell cycle stage: G1/S) was determined as 48.5 °C; in series [2] (cell cycle stage: mitosis), 53.3 °C. Besides, the “solubility change mitosis (log2)” value in series [3] was 0.205. For the same sequence, the thermal stability score worked out at 2.33 in series [4] (setting [5]) and 3.78 in series [4] (cell cycle stage: mitosis).
As for “MDNQCTVQVRLELGHRAQLRKKPTTEGFTHDWMVFVRGPEQCDIQHFVEKVVFWLHDSFPKPRRVCKEPPYKVEESGYAGFIMPIEVHFKNKEEPRKVCFTYDLFLNLEGNPPVNHLRCEKLTFNNPTTEFRYKLLRAGGVMVMPEGADTVSRPSPDYPMLPTIPLSAFSDPKKTKPSHGSKDANKESSKTSKPHKVTKEHRERPRKDSESKSSSKELEREQAKSSKDTSRKLGEGRLPKEEKAPPPKAAFKEPKMALKETKLESTSPKGGPPPPPPPPPRASSKRPATADSPKPSAKKQKKSSSKGSRSAPGTSPRTSSSSSFSDKKPAKDKSSTRGEKVKAESEPREAKKALEVEESNSEDEASFKSESAQSSPSNSSSSSDSSSDSDFEPSQNHSQGPLRSMVEDLQSEESDEDDSSSGEEAAGKTNPGRDSRLSFSDSESDNSADSSLPSREPPPPQKPPPPNSKVSGRRSPESCSKPEKILKKGTYDKAYTDELVELHRRLMALRERNVLQQIVNLIEETGHFNVTNTTFDFDLFSLDETTVRKLQSCLEAVAT [MLLT1]”, in series [1], the “solubility in G1/S (log2)” value is -0.205. Moreover, the melting temperature in series [2] (cell cycle stage: G1/S) is 50.5 °C; in series [2] (cell cycle stage: mitosis), 53 °C. Moreover, the “solubility change mitosis (log2)” value in series [3] was 0.264. Besides, the thermal stability score in series [4] (setting [5]) is -0.27; in series [4] (cell cycle stage: mitosis) it was 0.333.
Consider “MDPAARVVRALWPGGCALAWRLGGRPQPLLPTQSRAGFAGAAGGPSPVAAARKGSPRLLGAAALALGGALGLYHTARWHLRAQDLHAERSAAQLSLSSRLQLTLYQYKTCPFCSKVRAFLDFHALPYQVVEVNPVRRAEIKFSSYRKVPILVAQEGESSQQLNDSSVIISALKTYLVSGQPLEEIITYYPAMKAVNEQGKEVTEFGNKYWLMLNEKEAQQVYGGKEARTEEMKWRQWADDWLVHLISPNVYRTPTEALASFDYIVREGKFGAVEGAVAKYMGAAAMYLISKRLKSRHRLQDNVREDLYEAADKWVAAVGKDRPFMGGQKPNLADLAVYGVLRVMEGLDAFDDLMQHTHIQPWYLRVERAITEASPAH [PTGES2]”, for which the “solubility in G1/S (log2)” value in series [1] worked out at 0.0509. Also, the melting temperature in series [2] (cell cycle stage: G1/S) came to 54.6 °C; in series [2] (cell cycle stage: mitosis) it was 54.9 °C. Moreover, in series [3], the “solubility change mitosis (log2)” value was -0.0374. Also, the values for the thermal stability score in series [4] (setting [5]) and in series [4] (cell cycle stage: mitosis) were 1.5 and 0.796, respectively.
Turning to “MDPECAQLLPALCAVLVDPRQPVADDTCLEKLLDWFKTVTEGESSVVLLQEHPCLVELLSHVLKVQDLSSGVLSFSLRLAGTFAAQENCFQYLQQGELLPGLFGEPGPLGRATWAVPTVRSGWIQGLRSLAQHPSALRFLADHGAVDTIFSLQGDSSLFVASAASQLLVHVLALSMRGGAEGQPCLPGGDWPACAQKIMDHVEESLCSAATPKVTQALNVLTTTFGRCQSPWTEALWVRLSPRVACLLERDPIPAAHSFVDLLLCVARSPVFSSSDGSLWETVARALSCLGPTHMGPLALGILKLEHCPQALRTQAFQVLLQPLACVLKATVQAPGPPGLLDGTADDATTVDTLLASKSSCAGLLCRTLAHLEELQPLPQRPSPWPQASLLGATVTVLRLCDGSAAPASSVGGHLCGTLAGCVRVQRAALDFLGTLSQGTGPQELVTQALAVLLECLESPGSSPTVLKKAFQATLRWLLSSPKTPGCSDLGPLIPQFLRELFPVLQKRLCHPCWEVRDSALEFLTQLSRHWGGQADFRCALLASEVPQLALQLLQDPESYVRASAVTAMGQLSSQGLHAPTSPEHAEARQSLFLELLHILSVDSEGFPRRAVMQVFTEWLRDGHADAAQDTEQFVATVLQAASRDLDWEVRAQGLELALVFLGQTLGPPRTHCPYAVALPEVAPAQPLTEALRALCHVGLFDFAFCALFDCDRPVAQKSCDLLLFLRDKIASYSSLREARGSPNTASAEATLPRWRAGEQAQPPGDQEPEAVLAMLRSLDLEGLRSTLAESSDHVEKSPQSLLQDMLATGGFLQGDEADCY [BRAT1]”, the “solubility in G1/S (log2)” value in series [1] worked out at 0.0286. Further, the melting temperature was determined as 46.5 °C in series [2] (cell cycle stage: G1/S) and 48.4 °C in series [2] (cell cycle stage: mitosis). Also, the “solubility change mitosis (log2)” value in series [3] is -0.141. The figures for the thermal stability score in series [4] (setting [5]) and in series [4] (cell cycle stage: mitosis) were 1.55 and 4.01, respectively.
For “MDPFTEKLLERTRARRENLQRKMAERPTAAPRSMTHAKRARQPLSEASNQQPLSGGEEKSCTKPSPSKKRCSDNTEVEVSNLENKQPVESTSAKSCSPSPVSPQVQPQAADTISDSVAVPASLLGMRRGLNSRLEATAASSVKTRMQKLAEQRRRWDNDDMTDDIPESSLFSPMPSEEKAASPPRPLLSNASATPVGRRGRLANLAATICSWEDDVNHSFAKQNSVQEQPGTACLSKFSSASGASARINSSSVKQEATFCSQRDGDASLNKALSSSADDASLVNASISSSVKATSPVKSTTSITDAKSCEGQNPELLPKTPISPLKTGVSKPIVKSTLSQTVPSKGELSREICLQSQSKDKSTTPGGTGIKPFLERFGERCQEHSKESPARSTPHRTPIITPNTKAIQERLFKQDTSSSTTHLAQQLKQERQKELACLRGRFDKGNIWSAEKGGNSKSKQLETKQETHCQSTPLKKHQGVSKTQSLPVTEKVTENQIPAKNSSTEPKGFTECEMTKSSPLKITLFLEEDKSLKVTSDPKVEQKIEVIREIEMSVDDDDINSSKVINDLFSDVLEEGELDMEKSQEEMDQALAESSEEQEDALNISSMSLLAPLAQTVGVVSPESLVSTPRLELKDTSRSDESPKPGKFQRTRVPRAESGDSLGSEDRDLLYSIDAYRSQRFKETERPSIKQVIVRKEDVTSKLDEKNNAFPCQVNIKQKMQELNNEINMQQTVIYQASQALNCCVDEEHGKGSLEEAEAERLLLIATGKRTLLIDELNKLKNEGPQRKNKASPQSEFMPSKGSVTLSEIRLPLKADFVCSTVQKPDAANYYYLIILKAGAENMVATPLASTSNSLNGDALTFTTTFTLQDVSNDFEINIEVYSLVQKKDPSGLDKKKKTSKSKAITPKRLLTSITTKSNIHSSVMASPGGLSAVRTSNFALVGSYTLSLSSVGNTKFVLDKVPFLSSLEGHIYLKIKCQVNSSVEERGFLTIFEDVSGFGAWHRRWCVLSGNCISYWTYPDDEKRKNPIGRINLANCTSRQIEPANREFCARRNTFELITVRPQREDDRETLVSQCRDTLCVTKNWLSADTKEERDLWMQKLNQVLVDIRLWQPDACYKPIGKP [ANLN]”, in series [1], the “solubility in G1/S (log2)” value is -0.029. For the same sequence, the melting temperature worked out at 47 °C in series [2] (cell cycle stage: G1/S) and 49.6 °C in series [2] (cell cycle stage: mitosis). In series [3], the “solubility change mitosis (log2)” value is 0.0107. Further, the thermal stability score in series [4] (setting [5]) is 5.84; in series [4] (cell cycle stage: mitosis), 9.22.
